T1: recombinant human activated Factor VII (FVIIa) (human, UniProt P08709 61-212; P08709 213-466, ten glutamate residues of the Gla domain may be gamma-carboxylated)
T1 construct: chains tethered by a disulfide bond; also called Factor VIIa; rFVIIa
T1 sequence 1: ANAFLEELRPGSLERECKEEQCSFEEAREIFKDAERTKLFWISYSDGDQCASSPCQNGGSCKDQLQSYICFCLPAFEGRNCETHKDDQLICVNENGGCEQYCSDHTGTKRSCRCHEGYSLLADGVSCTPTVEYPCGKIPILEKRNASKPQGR
T1 sequence 2: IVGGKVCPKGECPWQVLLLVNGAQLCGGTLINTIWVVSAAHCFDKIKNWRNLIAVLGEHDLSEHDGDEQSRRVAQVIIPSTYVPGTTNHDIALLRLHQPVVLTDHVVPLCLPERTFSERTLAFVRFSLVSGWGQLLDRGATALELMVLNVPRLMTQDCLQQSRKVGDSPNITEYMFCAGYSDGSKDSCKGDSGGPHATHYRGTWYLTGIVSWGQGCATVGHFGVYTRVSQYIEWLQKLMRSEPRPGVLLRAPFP


Target: T1, recombinant human activated Factor VII …
Experiment: BLI (Fortebio)

Binder | Kd [nM]
VH SEQ ID NO 610 / VL SEQ ID NO 366 (antibody, IgG4, V domains shown, humanized 11F2; IgG4 S228P/kappa) VH: QVQLQESGPGLVKPSQTLSLTCTVSGGSITSDSAWSWIRQPPGKGLEWIGYIQYSGSTNYNPSLKSRVTISVDTSKNQFSLKLSSVTAADTAVYYCARSVNYYGNSFAVGYWGQGTLVTVSS VL: EIVLTQSPATLSLSPGERATLSCRASQGLSDYLAWYQQKPGEAPRLLIKYASQPATGIPARFSGSGSGTDFTLTISSLEPEDFAVYYCQNGHSFPLTFGQGTKLEIK | 330
VH SEQ ID NO 610 / VL SEQ ID NO 454 (antibody, IgG4, V domains shown, humanized 11F2; IgG4 S228P/kappa) VH: QVQLQESGPGLVKPSQTLSLTCTVSGGSITSDSAWSWIRQPPGKGLEWIGYIQYSGSTNYNPSLKSRVTISVDTSKNQFSLKLSSVTAADTAVYYCARSVNYYGNSFAVGYWGQGTLVTVSS VL: EIVLTQSPATLSLSPGERATLSCRASQGVSDYLHWYQQKPGEAPRLLIKYASQPATGIPARFSGSGSGTDFTLTISSLEPEDFAVYYCQNGHSFPLTFGQGTKLEIK | 16
VH SEQ ID NO 610 / VL SEQ ID NO 438 (antibody, IgG4, V domains shown, humanized 11F2; IgG4 S228P/kappa) VH: QVQLQESGPGLVKPSQTLSLTCTVSGGSITSDSAWSWIRQPPGKGLEWIGYIQYSGSTNYNPSLKSRVTISVDTSKNQFSLKLSSVTAADTAVYYCARSVNYYGNSFAVGYWGQGTLVTVSS VL: EIVLTQSPATLSLSPGERATLSCRASQGVSDYLAWYQQKPGQAPRLLIKYASQPATGIPARFSGSGSGTDFTLTISSLEPEDVAVYYCQNGHSFPLTFGQGTKLEIK | 620
VH SEQ ID NO 610 / VL SEQ ID NO 446 (antibody, IgG4, V domains shown, humanized 11F2; IgG4 S228P/kappa) VH: QVQLQESGPGLVKPSQTLSLTCTVSGGSITSDSAWSWIRQPPGKGLEWIGYIQYSGSTNYNPSLKSRVTISVDTSKNQFSLKLSSVTAADTAVYYCARSVNYYGNSFAVGYWGQGTLVTVSS VL: EIVLTQSPATLSLSPGERATLSCRASQGVSDYLAWYQQKPGQAPRLLIKYTSQPATGIPARFSGSGSGTDFTLTISSLEPEDFAVYYCQNGHSFPLTFGQGTKLEIK | 49
VH SEQ ID NO 610 / VL SEQ ID NO 462 (antibody, IgG4, V domains shown, humanized 11F2; IgG4 S228P/kappa) VH: QVQLQESGPGLVKPSQTLSLTCTVSGGSITSDSAWSWIRQPPGKGLEWIGYIQYSGSTNYNPSLKSRVTISVDTSKNQFSLKLSSVTAADTAVYYCARSVNYYGNSFAVGYWGQGTLVTVSS VL: EIVLTQSPATLSLSPGERATLSCRASQGVSDYLHWYQQKPGQAPRLLIKYASQPATGIPARFSGSGSGTDFTLTISSLEPEDFAVYYCQNGHSFPLTFGAGTKLEIK | 17
VH SEQ ID NO 610 / VL SEQ ID NO 390 (antibody, IgG4, V domains shown, humanized 11F2; IgG4 S228P/kappa) VH: QVQLQESGPGLVKPSQTLSLTCTVSGGSITSDSAWSWIRQPPGKGLEWIGYIQYSGSTNYNPSLKSRVTISVDTSKNQFSLKLSSVTAADTAVYYCARSVNYYGNSFAVGYWGQGTLVTVSS VL: EIVLTQSPATLSLSPGERATLSCRASQGVSDYLAWYQQKPGEAPRLLIKYASQPATGIPARFSGSGSGTDFTLTISSLEPEDFAVYYCQNGHSFPLTFGQGTKLEIK | 380
VH SEQ ID NO 610 / VL SEQ ID NO 382 (antibody, IgG4, V domains shown, humanized 11F2; IgG4 S228P/kappa) VH: QVQLQESGPGLVKPSQTLSLTCTVSGGSITSDSAWSWIRQPPGKGLEWIGYIQYSGSTNYNPSLKSRVTISVDTSKNQFSLKLSSVTAADTAVYYCARSVNYYGNSFAVGYWGQGTLVTVSS VL: EIVLTQSPATLSLSPGERATLSCRASQGLSDYLHWYQQKPGEAPRLLIKYASQPATGIPARFSGSGSGTDFTLTISSLEPEDFAVYYCQNGHSFPLTFGQGTKLEIK | 17
VH SEQ ID NO 610 / VL SEQ ID NO 414 (antibody, IgG4, V domains shown, humanized 11F2; IgG4 S228P/kappa) VH: QVQLQESGPGLVKPSQTLSLTCTVSGGSITSDSAWSWIRQPPGKGLEWIGYIQYSGSTNYNPSLKSRVTISVDTSKNQFSLKLSSVTAADTAVYYCARSVNYYGNSFAVGYWGQGTLVTVSS VL: EIVLTQSPATLSLSPGERATLSCRASQGVSDYLAWYQQKPGQAPRLLIKYASQPATGIPARFSGSGSGTDFTLTISSLEPEDFAVYYCQNGHSFPLTFGQGTKLEIK | 780
VH SEQ ID NO 610 / VL SEQ ID NO 406 (antibody, IgG4, V domains shown, humanized 11F2; IgG4 S228P/kappa) VH: QVQLQESGPGLVKPSQTLSLTCTVSGGSITSDSAWSWIRQPPGKGLEWIGYIQYSGSTNYNPSLKSRVTISVDTSKNQFSLKLSSVTAADTAVYYCARSVNYYGNSFAVGYWGQGTLVTVSS VL: EIVLTQSPATLSLSPGERATLSCRASQGVSDYLAWYQQKPGQAPRLLIKYASQPATGIPARFSGSGSGTDFTLTISSLEPEDFAVYYCQNGHSFPLTFGAGTKLEIK | 480
VH SEQ ID NO 610 / VL SEQ ID NO 430 (antibody, IgG4, V domains shown, humanized 11F2; IgG4 S228P/kappa) VH: QVQLQESGPGLVKPSQTLSLTCTVSGGSITSDSAWSWIRQPPGKGLEWIGYIQYSGSTNYNPSLKSRVTISVDTSKNQFSLKLSSVTAADTAVYYCARSVNYYGNSFAVGYWGQGTLVTVSS VL: EIVLTQSPATLSLSPGERATLSCRASQGVSDYLAWYQQKPGQAPRLLIKYASQPATGIPARFSGSGSGTDFTLTISSLEPEDFGVYYCQNGHSFPLTFGQGTKLEIK | 1500

More lines, now with the values ahead:

Kd [nM] | Binder
1.1 | VH SEQ ID NO 618 / VL SEQ ID NO 326 (antibody, IgG4, V domains shown, humanized 11F2; IgG4 S228P/kappa) VH: QVQLQESGPGLVKPSQTLSLTCTVSGYSISSDSAWSWIRQFPGKGLEWIGYIQYSGSTNYNPSLKSRVTISRDTSKNQFSLKLSSVTAADTAVYYCARSVNYYGNSFAVGPWGQGTLVTVSS VL: EIVLTQSPATLSLSPGERATLSCRASQGISDYLHWYQQKPGEAPRLLIKYTSQPATGIPARFSGSGSGTDFTLTISSLEPEDFGVYYCQNGHSFPLTFGAGTKLELK
1.1 | VH SEQ ID NO 618 / VL SEQ ID NO 318 (antibody, IgG4, V domains shown, humanized 11F2; IgG4 S228P/kappa) VH: QVQLQESGPGLVKPSQTLSLTCTVSGYSISSDSAWSWIRQFPGKGLEWIGYIQYSGSTNYNPSLKSRVTISRDTSKNQFSLKLSSVTAADTAVYYCARSVNYYGNSFAVGPWGQGTLVTVSS VL: EIVLTQSPATLSLSPGERATLSCRASQGISDYLHWYQQKPGEAPRLLIKYTSQPATGIPARFSGSGSGTDFTLTISSLEPEDFAVYYCQNGHSFPLTFGQGTKLEIK
17 | VH SEQ ID NO 610 / VL SEQ ID NO 486 (antibody, IgG4, V domains shown, humanized 11F2; IgG4 S228P/kappa) VH: QVQLQESGPGLVKPSQTLSLTCTVSGGSITSDSAWSWIRQPPGKGLEWIGYIQYSGSTNYNPSLKSRVTISVDTSKNQFSLKLSSVTAADTAVYYCARSVNYYGNSFAVGYWGQGTLVTVSS VL: EIVLTQSPATLSLSPGERATLSCRASQGVSDYLHWYQQKPGQAPRLLIKYASQPATGIPARFSGSGSGTDFTLTISSLEPEDFGVYYCQNGHSFPLTFGQGTKLEIK
17 | VH SEQ ID NO 610 / VL SEQ ID NO 494 (antibody, IgG4, V domains shown, humanized 11F2; IgG4 S228P/kappa) VH: QVQLQESGPGLVKPSQTLSLTCTVSGGSITSDSAWSWIRQPPGKGLEWIGYIQYSGSTNYNPSLKSRVTISVDTSKNQFSLKLSSVTAADTAVYYCARSVNYYGNSFAVGYWGQGTLVTVSS VL: EIVLTQSPATLSLSPGERATLSCRASQGVSDYLHWYQQKPGQAPRLLIKYASQPATGIPARFSGSGSGTDFTLTISSLEPEDVAVYYCQNGHSFPLTFGQGTKLEIK
1.3 | VH SEQ ID NO 618 / VL SEQ ID NO 334 (antibody, IgG4, V domains shown, humanized 11F2; IgG4 S228P/kappa) VH: QVQLQESGPGLVKPSQTLSLTCTVSGYSISSDSAWSWIRQFPGKGLEWIGYIQYSGSTNYNPSLKSRVTISRDTSKNQFSLKLSSVTAADTAVYYCARSVNYYGNSFAVGPWGQGTLVTVSS VL: EIVLTQSPATLSLSPGERATLSCRASQGISDYLHWYQQKPGQAPRLLIKYASQPATGIPARFSGSGSGTDFTLTISSLEPEDFAVYYCQNGHSFPLTFGQGTKLEIK
33 | VH SEQ ID NO 610 / VL SEQ ID NO 478 (antibody, IgG4, V domains shown, humanized 11F2; IgG4 S228P/kappa) VH: QVQLQESGPGLVKPSQTLSLTCTVSGGSITSDSAWSWIRQPPGKGLEWIGYIQYSGSTNYNPSLKSRVTISVDTSKNQFSLKLSSVTAADTAVYYCARSVNYYGNSFAVGYWGQGTLVTVSS VL: EIVLTQSPATLSLSPGERATLSCRASQGVSDYLHWYQQKPGQAPRLLIKYASQPATGIPARFSGSGSGTDFTLTISSLEPEDFAVYYCQQGHSFPLTFGQGTKLEIK
12 | VH SEQ ID NO 618 / VL SEQ ID NO 310 (antibody, IgG4, V domains shown, humanized 11F2; IgG4 S228P/kappa) VH: QVQLQESGPGLVKPSQTLSLTCTVSGYSISSDSAWSWIRQFPGKGLEWIGYIQYSGSTNYNPSLKSRVTISRDTSKNQFSLKLSSVTAADTAVYYCARSVNYYGNSFAVGPWGQGTLVTVSS VL: EIVLTQSPATLSLSPGERATLSCRASQGISDYLAWYQQKPGQAPRLLIKYASQPATGIPARFSGSGSGTDFTLTISSLEPEDFAVYYCQNGHSFPLTFGQGTKLEIK
1.2 | VH SEQ ID NO 618 / VL SEQ ID NO 342 (antibody, IgG4, V domains shown, humanized 11F2; IgG4 S228P/kappa) VH: QVQLQESGPGLVKPSQTLSLTCTVSGYSISSDSAWSWIRQFPGKGLEWIGYIQYSGSTNYNPSLKSRVTISRDTSKNQFSLKLSSVTAADTAVYYCARSVNYYGNSFAVGPWGQGTLVTVSS VL: EIVLTQSPATLSLSPGERATLSCRASQGISDYLHWYQQKPGQAPRLLIKYTSQPATGIPARFSGSGSGRDFTLTISSLEPEDFAVYYCQNGHSFPLTFGAGTKLELK
16 | VH SEQ ID NO 610 / VL SEQ ID NO 470 (antibody, IgG4, V domains shown, humanized 11F2; IgG4 S228P/kappa) VH: QVQLQESGPGLVKPSQTLSLTCTVSGGSITSDSAWSWIRQPPGKGLEWIGYIQYSGSTNYNPSLKSRVTISVDTSKNQFSLKLSSVTAADTAVYYCARSVNYYGNSFAVGYWGQGTLVTVSS VL: EIVLTQSPATLSLSPGERATLSCRASQGVSDYLHWYQQKPGQAPRLLIKYASQPATGIPARFSGSGSGTDFTLTISSLEPEDFAVYYCQNGHSFPLTFGQGTKLEIK
17 | VH SEQ ID NO 610 / VL SEQ ID NO 502 (antibody, IgG4, V domains shown, humanized 11F2; IgG4 S228P/kappa) VH: QVQLQESGPGLVKPSQTLSLTCTVSGGSITSDSAWSWIRQPPGKGLEWIGYIQYSGSTNYNPSLKSRVTISVDTSKNQFSLKLSSVTAADTAVYYCARSVNYYGNSFAVGYWGQGTLVTVSS VL: EIVLTQSPATLSLSPGERATLSCRASQGVSDYLHWYQQKPGQAPRLLIKYTSQPATGIPARFSGSGSGTDFTLTISSLEPEDFAVYYCQNGHSFPLTFGQGTKLEIK

Reference: patent US20220064329A1 (Novo Nordisk, published 2022)
